# From patent publication US20250066499A1 (SUNSHINE GUOJIAN PHARMACEUTICAL SHANGHAI, published 2025)
# Where a chain is given by its changes, count along the chain named.
# T1: CD73-ND-his (human, UniProt P21589 27-317)
# T1 construct: Biotinylated and captured on streptavidin in the ELISA
# T1 sequence: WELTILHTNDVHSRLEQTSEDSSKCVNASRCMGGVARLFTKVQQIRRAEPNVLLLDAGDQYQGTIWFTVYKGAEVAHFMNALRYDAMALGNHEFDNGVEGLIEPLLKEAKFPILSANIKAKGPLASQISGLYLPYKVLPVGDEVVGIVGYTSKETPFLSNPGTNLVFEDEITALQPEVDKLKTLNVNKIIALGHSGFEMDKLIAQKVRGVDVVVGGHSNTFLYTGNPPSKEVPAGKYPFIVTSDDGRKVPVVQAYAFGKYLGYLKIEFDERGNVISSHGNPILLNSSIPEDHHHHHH
# T2: CD73-ND-D142A (human, UniProt P21589 27-317)
# T2 construct: Alanine mutant of CD73-ND
# T2 sequence: T1 sequence with D142A
# T3: CD73-ND-Y135A (human, UniProt P21589 27-317)
# T3 construct: Alanine mutant of CD73-ND
# T3 sequence: T1 sequence with Y135A
# T4: CD73-ND-K136A (human, UniProt P21589 27-317)
# T4 construct: Alanine mutant of CD73-ND
# T4 sequence: T1 sequence with K136A
# T5: CD73-ND-V137A (human, UniProt P21589 27-317)
# T5 construct: Alanine mutant of CD73-ND
# T5 sequence: T1 sequence with V137A
# B1: 48A11-HuV33 (antibody, human IgG4, V domains shown)
# VH: QVQLVQSGAEVKKPGASVKVSCKASGYTFTSYWMHWVRQAPGQGLEWIGEINPSIGRTNYNEKFKSRVTLTRDTSTSTAYMELSSLRSEDTAVYYCARRVYGTMDYWGQGTLVTVSS
# VL: DIQMTQSPSSLSASVGDRVTITCKASQDINSYLSWFQQKPGKSPKLLIYRANIWVDGVPSRFSGSGSGQDYTFTISSLQPEDIATYYCLQYDELYTFGQGTKVEIK
# notes: Humanized
# Experiments:
# CD73-ND-his [1] = biological target: T1, CD73-ND-his; experiment: ELISA; decline multiple of EC50 against CD73-ND
# Experimental: (§1) The ELISA plates were coated with SA protein diluted to 1.5 μg/mL in coating buffer (50 mM carbonate coating buffer, pH 9.6) and incubated overnight at 4° C. The supernatant was discarded, and the plates were washed three times with PBST. Then, 5% skimmed milk powder prepared with PBS was added for blocking and the plates were incubated for 2 h at 37° C. After washing the plates once with PBST, CD73-biotin protein (prepared by biotinylating CD73-His protein according to the EZ-Link NHS-Biotin Reagent instructions) was diluted to 0.5 μg/mL and added at 100 μL/well for incubation at room temperature for 1 h. The plates were washed three times with PBST, and the prepared murine-derived monoclonal antibodies against human CD73 were serially diluted with 1% BSA buffer prepared with PBST and added to the ELISA plates at 100 μl/well. The plates were incubated at 37° C. for 1 h. After washing the plates three times with PBST, HRP-labeled goat anti-mouse IgG secondary antibody was added and the plates were incubated for 30 min at 37° C. After washing the plates three times with PBST, the residual droplets were patted dry on absorbent paper as much as possible. Then, 100 μl of TMB color developing solution was added to each well, and the plates were incubated in the dark at room temperature for 5 min for color development. Subsequently, 50 μl of 2M H₂SO₄ stop solution was added to each well to terminate the substrate reaction. The OD values were read at 450 nm using a multimode microplate reader to analyze the binding ability of the tested antibodies to the target antigen human CD73-His.
# (§2) Referring to the experimental method in Example 3, the affinity of 48A11-HuV33 for various mutant proteins of CD73-ND was determined. The SA protein was diluted to 1 μg/mL for coating the ELISA plates, and the biotinylated CD73 protein (CD73-biotin) was used at a concentration of 0.1 μg/mL.
# CD73-ND-D142A = biological target: T2, CD73-ND-D142A; experiment: ELISA; decline multiple of EC50 against CD73-ND
# Experimental: as §1, §2
# CD73-ND-his [2] = biological target: T1, CD73-ND-his; experiment: ELISA, biotinylated antigen on streptavidin plate
# Experimental: as §1, §2
# CD73-ND-Y135A = biological target: T3, CD73-ND-Y135A; experiment: ELISA, biotinylated antigen on streptavidin plate
# Experimental: as §1, §2
# CD73-ND-K136A = biological target: T4, CD73-ND-K136A; experiment: ELISA, biotinylated antigen on streptavidin plate
# Experimental: as §1, §2
# CD73-ND-V137A = biological target: T5, CD73-ND-V137A; experiment: ELISA, biotinylated antigen on streptavidin plate
# Experimental: as §1, §2
# CD73-ND-his [3] = biological target: T1, CD73-ND-his; experiment: ELISA as in Example 3, antigen CD73-ND-his, antibody titrated, absorbance 450 nm
binder,measurement,setting,value
B1,Ratio(EC50),CD73-ND-his [1],1 fold
same,Ratio(EC50),CD73-ND-D142A,1.9 fold
same,EC50,CD73-ND-his [2],0.152 nM
same,EC50,CD73-ND-Y135A,0.165 nM
same,EC50,CD73-ND-K136A,0.145 nM
same,EC50,CD73-ND-V137A,0.891 nM
same,EC50 (read off the curve),CD73-ND-his [3],~0.04 nM
